These results are taken from patent US6767720 (VLAAMS INTERUNIVERSITAIR INSTITUUT VOOR BIOTECHNOLOGIE VZW, dated 2004).

To fix the notation:
B2: αN-catenin residues 4-193 fused to the GAL4-DBD (plasmid pGBT9ANCTN(EcoRI-BamHI)) (other, UniProt P04386 1-147, looked up)
chain: MKLLSSIEQACDICRLKKLKCSKEKPKCAKCLKNNWECRYSPKTKRSPLTRAHLTEVESRLERLEQLFLLIFPREDLDMILKMDSLQDIKALLTGLFVQDNVNKDAVTDRLASVETDMPLTLRQHRISATSSSEESSNKGQRQLTVSATSPIILKWDPKSLEIRTLTVERLLEPLVTQVTTLVNTSNKGPSGKKKGRSKKAHVLAASVEQATQNFLEKGEQIAKESQDLKEELVAAVEDVRKQGETMRIASSEFADDPCSSVKRGTMVRAARALLSAVTRLLILADMADVMRLLSHLKIVEEALEAVKNATNEQDLANRFKEFGKEMVKLNYVAARR
B3: αN-catenin residues 535-787 fused to the GAL4-DBD (plasmid pGBT9ANCTN(PstI 1618-2375)) (other, UniProt P04386 1-147, looked up)
chain: MKLLSSIEQACDICRLKKLKCSKEKPKCAKCLKNNWECRYSPKTKRSPLTRAHLTEVESRLERLEQLFLLIFPREDLDMILKMDSLQDIKALLTGLFVQDNVNKDAVTDRLASVETDMPLTLRQHRISATSSSEESSNKGQRQLTVSTLDRTAGAIRGRAARVIHIINAEMENYEAGVYTEKVLEATKLLSETVMPRFAEQVEVAIEALSANVPQPFEENEFIDASRLVYDGVRDIRKAVLMIRTPEELEDDSDFEQEDYDVRSRTSVQTEDDQLIAGQSARAIMAQLPQEEKAKIAEQVEIFHQEKSKLDAEVAKWDDSGNDIIVLAKQMCMIMMEMTDFTRGKGPLKNTSDVINAAKKIAEAGSRMDKLARAVADQCPDSACKQDLLAYLQRIALYCH
B8: ANC-2H01 initial two-hybrid clone (part of ANC-2H01 fused to the GAL4-AD, plasmid pGAD10ANC2H01) (other, not shown: large carriers)
chain: IADGFNGIFSDHCYSVCSMRQPDLKYFDNKDDDSDTETSNDLPKFADGIKARNRNQNYLVPSPVLRILDHTAFSTEKSADIVICDEECDSPESVNQQTQEESPIEVHTAEDVPIAVEVHAISEDYDIETENNSSESLQDQTDEEPPAKLCKILDKSQALNVTAQQKWPLLRANSSGLYKCELCEFNSKYFSDLKQHMILKHKRTDSNVCRVCKESFSTNMLLIEHAKLHEEDPYICKYCDYKTVIFENLSQHIADTHFSDHLYWCEQCDVQFSSSSELYLHFQEHSCDEQYLCQFCEHETNDPEDLHSHVVNEHACKLIELSDKYNNGEHGQYSLLSKITFDKCKNFFVCQVCGFRSRLHTNVNRHVAIEHTKIFPHVCDDCGKGFSSMLEYCKHLNSHLSEGIYLCQYCEYSTGQIEDLKIHLDFKHSADLPHKCSDCLMRFGNERELISHLPVHETT
notes: 27-485 is derived from 459 of 485 residues; also called ANC-2H01 clone; initial ANC-2H01 two-hybrid clone

Assay [1] concerns the target T1, human αN-catenin fused to the GAL4-DBD in pGBT9 (plasmid pGBT9ANCTN) (human, UniProt P04386 1-147; P26232 4-905, limits assumed).
T1 construct: Construction of pGBT9ANCTN is not described; also called pGBT9αNCTN; pGBT9-αNCTN
In words: yeast two-hybrid, strain Y190 (FIG. 16).

The target of assay [2] is B8. Description: yeast two-hybrid (FIG. 4).
The target of assay [3] is T2, human αE-catenin (full-length; expressed from pJ6αECTN in HEK293T cells, also endogenous in HEK293T) (human, UniProt P35221 1-906).
T2 construct: also called PJ6αECTN(37-3433); pJ6αE-catenin
T2 sequence (looked up): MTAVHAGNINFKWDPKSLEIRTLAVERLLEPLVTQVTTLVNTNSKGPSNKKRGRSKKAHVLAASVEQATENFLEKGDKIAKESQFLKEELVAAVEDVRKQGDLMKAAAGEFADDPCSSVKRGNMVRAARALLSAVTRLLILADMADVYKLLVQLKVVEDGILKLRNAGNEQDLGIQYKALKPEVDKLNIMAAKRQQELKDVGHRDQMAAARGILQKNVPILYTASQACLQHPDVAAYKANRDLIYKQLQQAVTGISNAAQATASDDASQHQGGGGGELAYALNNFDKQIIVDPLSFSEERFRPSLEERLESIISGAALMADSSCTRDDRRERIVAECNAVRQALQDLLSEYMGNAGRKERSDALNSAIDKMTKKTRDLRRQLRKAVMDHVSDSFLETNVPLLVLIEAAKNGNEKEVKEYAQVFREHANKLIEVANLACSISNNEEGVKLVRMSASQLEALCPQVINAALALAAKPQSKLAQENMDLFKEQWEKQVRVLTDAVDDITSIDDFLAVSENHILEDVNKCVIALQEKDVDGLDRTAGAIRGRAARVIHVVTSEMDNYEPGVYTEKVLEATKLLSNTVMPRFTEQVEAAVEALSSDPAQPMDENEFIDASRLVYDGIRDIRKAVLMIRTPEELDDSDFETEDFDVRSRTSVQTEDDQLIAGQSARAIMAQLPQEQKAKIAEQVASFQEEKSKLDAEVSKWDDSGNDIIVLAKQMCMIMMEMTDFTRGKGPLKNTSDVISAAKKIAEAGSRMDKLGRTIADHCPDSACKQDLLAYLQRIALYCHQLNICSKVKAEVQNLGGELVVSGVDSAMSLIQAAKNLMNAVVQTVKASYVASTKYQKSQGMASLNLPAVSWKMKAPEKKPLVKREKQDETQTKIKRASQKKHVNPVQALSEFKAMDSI
Description: co-immunoprecipitation from cotransfected HEK293T cells, Western blot.

Assay [4] addresses αN-catenin residues 4-535 fused to the GAL4-DBD (plasmid pGBT9ANCTN(EcoRI-PstI)) (human, UniProt P04386 1-147; P26232 4-535). Description: yeast two-hybrid (FIG. 4).
Assay [5] deals with B3. In words: yeast two-hybrid (FIG. 4).
Assay [6] addresses B2. In words: yeast two-hybrid (FIG. 4).
The target of assay [7] is T3, αN-catenin residues 543-906 fused to the GAL4-DBD (plasmid pGBT9ANCTN-(XhoI-SalI)) (human, UniProt P04386 1-147; P26232 543-906).
T3 construct: the UniProt canonical isoform differs near the C-terminus
In words: yeast two-hybrid (FIG. 4).

Assay [8] has as its target T1, human αN-catenin fused to the GAL4-DBD …. In words: yeast two-hybrid (FIG. 4).
The target of assay [9] is T4, human αE-catenin fused to the GAL4-DBD (plasmid pGBT9αECTN) (human, UniProt P04386 1-147; P35221 1-906, limits assumed).
T4 construct: also called full-length αE-catenin
In words: yeast two-hybrid, strain HF7c (FIG. 4).

B1: zinc fingers 4 to 5 of ANC-2H01 fused to the GAL4-AD (plasmid pACT2ANC2H01-ZF4-5) (other, not shown: large carriers)
chain: LYWCEQCDVQFSSSSELYLHFQEHSCDEQYLCQFCEHETNDPEDLHSHVVNEHACKLIELSDK
notes: also called pACT2ANC2H01Zn4-5
Take B1: the binding result in assay [1] was “no binding”.
As for B2, the binding result in assay [2] is “no binding”.
Still for that read-out and setting: under B3 stands “no binding”.

B4: E-tagged full-length ANC-2H01 protein (expression plasmid pEFBOSANC-2H01E), expressed in HEK293T cells (other)
chain: MNEYPKKRKRKTLHPSRYSDSSGISRIADGFNGIFSDHCYSVCSMRQPDLKYFDNKDDDSDTETSNDLPKFADGIKARNRNQNYLVPSPVLRILDHTAFSTEKSADIVICDEECDSPESVNQQTQEESPIEVHTAEDVPIAVEVHAISEDYDIETENNSSESLQDQTDEEPPAKLCKILDKSQALNVTAQQKWPLLRANSSGLYKCELCEFNSKYFSDLKQHMILKHKRTDSNVCRVCKESFSTNMLLIEHAKLHEEDPYICKYCDYKTVIFENLSQHIADTHFSDHLYWCEQCDVQFSSSSELYLHFQEHSCDEQYLCQFCEHETNDPEDLHSHVVNEHACKLIELSDKYNNGEHGQYSLLSKITFDKCKNFFVCQVCGFRSRLHTNVNRHVAIEHTKIFPHVCDDCGKGFSSMLEYCKHLNSHLSEGIYLCQYCEYSTGQIEDLKIHLDFKHSADLPHKCSDCLMRFGNERELISHLPVHETT
notes: also called pEFBOS-EANC-2H01; E-tagged ANC-2H01; not shown: E-tag derived from plasmid pCANTAB5E (Pharmacia), at the amino-terminal side
Consider B4, for which, in assay [3], the binding result was “no binding”.

B5: ANC-2H01/500 (amino-terminal part of ANC-2H01 lacking any functional zinc finger, fused to the GAL4-AD in pGAD10) (other, not shown: large carriers)
chain: IADGFNGIFSDHCYSVCSMRQPDLKYFDNKDDDSDTETSNDLPKFADGIKARNRNQNYLVPSPVLRILDHTAFSTEKSADIVICDEECDSPESVNQQTQEESPIEVHTAEDVPIAVEVHAISEDYDIETENNSSESLQDQTDEEPPAKLCKILDKSQALNVTAQQKW
notes: whole entry named, only the stated part stood in the assay
For the molecule B5, the binding result in assay [4], in assay [5], in assay [6], in assay [7], in assay [8] and in assay [9] was “no binding” throughout.

B6: ANC-2H01/600 (amino-terminal part of the initial ANC-2H01 plus half of the first zinc finger, fused to the GAL4-AD in pGAD10) (other, not shown: large carriers)
chain: IADGFNGIFSDHCYSVCSMRQPDLKYFDNKDDDSDTETSNDLPKFADGIKARNRNQNYLVPSPVLRILDHTAFSTEKSADIVICDEECDSPESVNQQTQEESPIEVHTAEDVPIAVEVHAISEDYDIETENNSSESLQDQTDEEPPAKLCKILDKSQALNVTAQQKWPLLRANSSGLYKCELCEFNSKY
notes: as for B5
Take B6: the binding result in assay [4], in assay [5], in [6], in [7], in assay [8] and in assay [9] was “no binding” in each case.

B7: zinc fingers 1 to 3 of ANC-2H01 fused to the GAL4-AD (plasmid pACT2ANC2H01ZF1-3) (other, not shown: large carriers)
chain: LYKCELCEFNSKYFSDLKQHMILKHKRTDSNVCRVCKESFSTNMLLIEHAKLHEEDPYICKYCDYKTVIFENLSQHIADTHFSDHL
Regarding B7, the binding result in assay [1] is listed as “no binding”.
On to B8, for which the binding result in [7] and in assay [9] was “no binding” in each case.

B9: zinc fingers 1 to 5 of ANC-2H01 fused to the GAL4-AD (plasmid pACT2ANC2H01ZF1-5) (other, not shown: large carriers)
chain: LYKCELCEFNSKYFSDLKQHMILKHKRTDSNVCRVCKESFSTNMLLIEHAKLHEEDPYICKYCDYKTVIFENLSQHIADTHFSDHLYWCEQCDVQFSSSSELYLHFQEHSCDEQYLCQFCEHETNDPEDLHSHVVNEHACKLIELSDK
Regarding B9, the binding result in assay [1] was “no binding”.

B10: ANC-2H01/BamHI (amino-terminal part of the ANC-2H01 clone plus two of the nine zinc fingers, fused to the GAL4-AD in pGAD10) (other, not shown: large carriers)
chain: IADGFNGIFSDHCYSVCSMRQPDLKYFDNKDDDSDTETSNDLPKFADGIKARNRNQNYLVPSPVLRILDHTAFSTEKSADIVICDEECDSPESVNQQTQEESPIEVHTAEDVPIAVEVHAISEDYDIETENNSSESLQDQTDEEPPAKLCKILDKSQALNVTAQQKWPLLRANSSGLYKCELCEFNSKYFSDLKQHMILKHKRTDSNVCRVCKESFSTNMLLIEHAKLHEEDP
notes: 700-bp BamHI fragment of the initial clone; only the stated part stood in the assay; also called pGAD10ANC-2H01/BamHI
In the case of B10, the binding result in assay [4], in assay [5], in assay [6], in [7], in [8] and in assay [9] was “no binding” in each case.
